# Data: the supplement of paper PMC10126150
# ± gives the standard deviation of the averaged measurements.
# Tested on: ATP
# Experiment: switch fluorescence ratio, 500 uM ATP over buffer (Cy3 cluster intensity, sum of 5 cycles each) (fold (ratio)); higher = stronger signal-on switching upon ATP binding; sequences stand for … in TCGTCGGCAGCGTCAGATGTGTATAAGAGACAGTTTTTTTTTTTTTTTTTTTTTTTTT…TC
# Conditions: aptamer strand: ATP DNA aptamer (quencher-CACCTGGGGGAGTATTGCGGAGGAAGG + anchor), 100 nM annealed; ATP concentration: 500 uM
# In short: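 Between each of five buffer/ATP cycles, the flow-cell was stripped with NaOH and re-annealed. Each cycle imaged Cy3-labelled switching-strand clusters, annealed to 100 nM quencher-labelled ATP aptamer on a modified Illumina MiSeq flow-cell, first in selection buffer and then after 15 min with 500 uM ATP at 22 °C. The fluorescence ratio is summed target-cycle over summed buffer-cycle Cy3 intensity per cluster, averaged per switch-domain sequence, with clusters outside 100-1000 RFU excluded.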
# 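Note: ATP exposure 15 min at 22 °C before imaging.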
row,Sequence,switch fluorescence ratio
1,TTATGGGCAG,1.01 ± 0.029
2,TTATGGGCGA,1 ± 0.046
3,TTATGGTCTG,0.984 ± 0.038
4,TTATGGTGGG,0.981 ± 0.015
5,TTATGTAGGT,0.9798 ± 0.007
6,TTATGTTTAA,0.999 ± 0.025
7,TTATTAAATG,0.998 ± 0.013
8,TTATTAAGGT,1.01 ± 0.031
9,TTATTACGCT,0.9981 ± 0.0094
10,TTATTACGGG,1.01 ± 0.038
11,TTATTACTTA,0.984 ± 0.017
12,TTATTAGAAG,0.978 ± 0.012
13,TTATTAGAGC,0.958 ± 0.085
14,TTATTAGGAT,0.974 ± 0.024
15,TTATTAGGCA,1.01 ± 0.023
16,TTATTAGTCA,0.986 ± 0.041
17,TTATTATGGG,0.987 ± 0.0073
18,TTATTCATCG,1.01 ± 0.031
19,TTATTCGCAA,4.457 ± 0.044
20,TTATTCGGTA,0.9978 ± 0.0065
21,TTATTCGTCC,1.04 ± 0.058
22,TTATTCTTTC,1.01 ± 0.046
23,TTATTGCGCT,0.994 ± 0.013
24,TTATTGCGGG,0.967 ± 0.019
25,TTATTGGGAC,0.972 ± 0.02

row,Sequence,switch fluorescence ratio
1,TTATTGTTAC,1.03 ± 0.036
2,TTATTGTTTT,1.02 ± 0.065
3,TTATTTATTT,0.975 ± 0.03
4,TTATTTGAGT,1.06 ± 0.12
5,TTATTTTAAC,0.981 ± 0.04
6,TTATTTTTAT,0.998 ± 0.018
7,TTATTTTTGC,1.01 ± 0.042
8,TTCAAAACGC,1.03 ± 0.054
9,TTCAAAAGGG,1.05 ± 0.052
10,TTCAAAATGT,0.997 ± 0.032
11,TTCAAAGTCA,1.02
12,TTCAAATGAG,0.98 ± 0.044
13,TTCAAATGCT,0.998 ± 0.013
14,TTCAAATTTA,0.995 ± 0.025
15,TTCAACGACG,0.988 ± 0.082
16,TTCAAGATGG,0.992 ± 0.046
17,TTCAAGATTT,0.974 ± 0.022
18,TTCAAGCAGA,1.034 ± 0.0087
19,TTCAAGCTGG,1.039 ± 0.0098
20,TTCAAGGGAG,0.995 ± 0.014
21,TTCAAGGGTT,1.07 ± 0.18
22,TTCAATACCG,1.09 ± 0.025
23,TTCAATATGC,1.1 ± 0.033
24,TTCAATATTT,1 ± 0.024
25,TTCAATCCGT,1.17 ± 0.24

row,Sequence,switch fluorescence ratio
1,TTCAATGTAG,1 ± 0.029
2,TTCAATTCAC,1.37 ± 0.41
3,TTCAATTTCC,1.01 ± 0.028
4,TTCACAGGAG,1.12 ± 0.05
5,TTCACATTGG,1.01 ± 0.03
6,TTCACGAGTG,0.988 ± 0.052
7,TTCACTGGGC,1.01 ± 0.0013
8,TTCACTTTGA,1.012 ± 0.0067
9,TTCACTTTTT,1 ± 0.012
10,TTCAGAAGCC,1.12 ± 0.061
11,TTCAGAAGCG,1.01 ± 0.028
12,TTCAGAAGGT,1.01 ± 0.051
13,TTCAGACTTT,0.996 ± 0.022
14,TTCAGAGCGT,0.994 ± 0.018
15,TTCAGATGCG,0.993 ± 0.041
16,TTCAGATGGG,0.972 ± 0.01
17,TTCAGCCATT,1.01 ± 0.041
18,TTCAGCCGAG,1.02 ± 0.014
19,TTCAGCTCTA,0.993 ± 0.028
20,TTCAGGAGAC,1.01 ± 0.041
21,TTCAGGAGTG,0.993 ± 0.067
22,TTCAGGCCGT,1.02 ± 0.056
23,TTCAGGGAGA,1.005 ± 0.008
24,TTCAGGGGCT,1.43 ± 0.58
25,TTCAGGGGTC,1.02 ± 0.018

row,Sequence,switch fluorescence ratio
1,TTCAGTACCT,1.19 ± 0.016
2,TTCAGTATGG,0.9614 ± 0.0068
3,TTCAGTGCAT,1.02 ± 0.051
4,TTCAGTGGAG,1.009 ± 0.0087
5,TTCAGTTCGT,1.008 ± 0.0089
6,TTCAGTTGAG,1 ± 0.014
7,TTCAGTTTTA,1.017 ± 0.0035
8,TTCATAACAA,1.02 ± 0.022
9,TTCATAATGT,0.9632 ± 0.0096
10,TTCATCAGCG,1.05 ± 0.083
11,TTCATCGGGG,0.979 ± 0.028
12,TTCATGAGTT,1 ± 0.0022
13,TTCATGGGGC,1.05 ± 0.086
14,TTCATTAATC,0.97104 ± 0.00025
15,TTCATTCGCT,1.52 ± 0.056
16,TTCATTCGTT,1.05 ± 0.046
17,TTCATTGGGA,1.01 ± 0.025
18,TTCATTTCGG,1.001 ± 0.0025
19,TTCATTTGGT,0.983 ± 0.025
20,TTCCAATGAT,1.01 ± 0.044
21,TTCCACCAAA,1.07 ± 0.033
22,TTCCAGTTGG,1.04 ± 0.037
23,TTCCATGTCG,0.958 ± 0.02
24,TTCCATTTTT,0.984 ± 0.012
25,TTCCCCAGTT,1.03 ± 0.036
